# In US20100279318A1 (OMEROS, published 2010):
# Biological target: T1, dopamine D5 receptor-GFP (D5-GFP) (Aequoria victoria, UniProt P21918 1-477; P42212 1-238 = GFP)
# T1 construct: also called D5 dopamine receptor; not shown: vector-encoded residues between the KpnI site and the start codon of GFP
# Test: NLS co-trafficking assay, co-transfected HEK cells, 48 h, confocal microscopy
binder,measurement,value
"Dopamine D1 receptor containing a NLS (D1-NLS) (receptor, No fluorescent tag; whether that entry is the full-length receptor cannot be seen from the text; The vector of the untagged D1-NLS is not described; also called D1 receptor with the NLS) MRTLNTSAMDGTGLVVERDFSVRILTACFLSLLILSTLLGNTLVCAAVIRFRHLRSKVTNFFVISLAVSDLLVAVLVMPWKAVAEIAGFWPFGSFCNIWVAFDIMCSTASILNLCVISVDRYWAISSPFRYERKMTPKAAFILISVAWTLSVLISFIPVQLSWHKAKPTSPSDGNATSLAETIDNCDSSLSRTYAISSSVISFYIPVAIMIVTYTRIYRIAQKQIRRIAALERAAVHAKNCQTTTGNGKPVECSQPESSFKMSFKRETKVLKTLSVIMGVFVCCWLPFFILNCILPFCGSGETQPFCIDSNTFDVFVWFGWANSSLNPIIYAFNAKKFKRFSTLLGCYRLCPATNNAIETVSINNNGAAMFSSHHEPRGSISKECNLVYLIPHAVGSSEDLKKEEAAGIARPLEKLSPALSVILDYDTDVSLEKIQPITQNGQHPT",binding result,no binding
